From publication PMC9482650, “Quantitative fragmentomics allow affinity mapping of interactomes” (Nature Communications, 2022)
Values belong to the binder of their own block, whether it stands above or below them.

What was measured:
Assay in all cases: holdup assay
Set-up in all cases: key: below the threshold = too weak to quantify, mostly under pKd 3.1 to 4
[1] = biological target: GRID2IP_1, A4D2P6
[2] = biological target: MAGI2_4, Q86UL8
[3] = biological target: T1, GRIP1_4, Q9Y3R0
T1 sequence (Q9Y3R0 467-571, limits assumed, looked up): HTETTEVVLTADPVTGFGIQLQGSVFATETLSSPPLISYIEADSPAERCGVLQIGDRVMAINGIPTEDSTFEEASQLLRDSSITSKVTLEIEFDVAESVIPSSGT

[4] = biological target: FRMPD4, Q14CM0
FRMPD4, Q14CM0, sequence (Q14CM0 67-160): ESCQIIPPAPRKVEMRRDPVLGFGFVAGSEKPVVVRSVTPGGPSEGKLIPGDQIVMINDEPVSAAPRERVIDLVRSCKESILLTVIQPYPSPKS

[5] = biological target: T2, FRMPD1, Q5SYB0
T2 sequence (Q5SYB0 52-145, limits assumed, looked up): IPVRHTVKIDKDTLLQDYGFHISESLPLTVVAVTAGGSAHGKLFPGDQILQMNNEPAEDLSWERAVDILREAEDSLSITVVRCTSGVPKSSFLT

[6] = biological target: GRID2IP_2, A4D2P6
GRID2IP_2, A4D2P6, sequence (A4D2P6 272-370): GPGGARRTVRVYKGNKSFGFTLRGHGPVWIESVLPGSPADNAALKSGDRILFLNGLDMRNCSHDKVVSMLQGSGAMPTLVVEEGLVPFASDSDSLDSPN

[7] = biological target: T3, LIN7B, Q9HAP6
T3 sequence (Q9HAP6 88-185, limits assumed, looked up): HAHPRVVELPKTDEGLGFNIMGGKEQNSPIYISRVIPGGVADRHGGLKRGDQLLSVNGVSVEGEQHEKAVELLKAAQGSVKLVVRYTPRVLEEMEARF

[8] = biological target: MAGI2_3, Q86UL8
MAGI2_3, Q86UL8, sequence (Q86UL8 600-682): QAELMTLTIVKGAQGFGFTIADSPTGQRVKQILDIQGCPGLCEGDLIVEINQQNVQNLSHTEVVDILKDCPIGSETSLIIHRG

[9] = biological target: T4, GRIP1_7, Q9Y3R0
T4 sequence (Q9Y3R0 999-1096, limits assumed, looked up): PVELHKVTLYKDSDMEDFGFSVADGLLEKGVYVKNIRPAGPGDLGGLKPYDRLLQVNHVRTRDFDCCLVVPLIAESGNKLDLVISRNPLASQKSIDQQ

[10] = biological target: MAGI2_6, Q86UL8
MAGI2_6, Q86UL8, sequence (Q86UL8 1141-1229): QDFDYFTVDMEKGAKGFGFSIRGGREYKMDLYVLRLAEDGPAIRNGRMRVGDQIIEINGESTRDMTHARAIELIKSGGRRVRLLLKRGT

[11] = biological target: LNX1_1, Q8TBB1
LNX1_1, Q8TBB1, sequence (Q8TBB1 261-371): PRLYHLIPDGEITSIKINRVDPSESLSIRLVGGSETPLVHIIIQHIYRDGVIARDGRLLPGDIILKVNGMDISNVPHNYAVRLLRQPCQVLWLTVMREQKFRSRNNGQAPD

[12] = biological target: T5, PTPN13_1, Q12923
T5 sequence (Q12923 1088-1188, limits assumed, looked up): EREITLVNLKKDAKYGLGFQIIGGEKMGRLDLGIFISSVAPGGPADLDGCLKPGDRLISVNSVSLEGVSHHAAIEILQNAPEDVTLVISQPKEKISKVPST

[13] = biological target: DLG4_2, P78352
DLG4_2, P78352, sequence (P78352 155-259): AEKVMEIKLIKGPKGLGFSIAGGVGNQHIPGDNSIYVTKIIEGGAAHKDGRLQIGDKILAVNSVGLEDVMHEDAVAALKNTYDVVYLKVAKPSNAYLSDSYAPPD

[14] = biological target: TJP1_2, Q07157
TJP1_2, Q07157, sequence (Q07157 181-274): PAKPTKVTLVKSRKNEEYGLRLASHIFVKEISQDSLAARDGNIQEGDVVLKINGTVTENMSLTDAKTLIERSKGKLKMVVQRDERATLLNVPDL

[15] = biological target: DLG2_3, Q15700
[16] = biological target: T6, PCLO, Q9Y6V0
T6 sequence (Q9Y6V0 4491-4600, limits assumed, looked up): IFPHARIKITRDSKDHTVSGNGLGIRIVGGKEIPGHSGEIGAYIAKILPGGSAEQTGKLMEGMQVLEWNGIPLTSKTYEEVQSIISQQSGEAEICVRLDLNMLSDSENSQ

[17] = biological target: SCRIB_1, Q14160
SCRIB_1, Q14160, sequence (Q14160 718-814): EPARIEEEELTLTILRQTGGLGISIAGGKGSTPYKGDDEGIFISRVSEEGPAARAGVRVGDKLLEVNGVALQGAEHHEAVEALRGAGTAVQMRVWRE

[18] = biological target: MAST1, Q9Y2H9
MAST1, Q9Y2H9, sequence (Q9Y2H9 962-1065): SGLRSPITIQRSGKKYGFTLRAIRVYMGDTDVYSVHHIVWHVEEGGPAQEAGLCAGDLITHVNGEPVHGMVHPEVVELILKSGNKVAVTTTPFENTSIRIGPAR

[19] = biological target: PDZRN4_1, Q6ZMN7
PDZRN4_1, Q6ZMN7, sequence (Q6ZMN7 213-318): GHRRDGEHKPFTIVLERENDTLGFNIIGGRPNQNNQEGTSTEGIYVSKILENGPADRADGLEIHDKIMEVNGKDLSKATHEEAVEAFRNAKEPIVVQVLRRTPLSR

[20] = biological target: T7, TIAM2, Q8IVF5
T7 sequence (Q8IVF5 885-986, limits assumed, looked up): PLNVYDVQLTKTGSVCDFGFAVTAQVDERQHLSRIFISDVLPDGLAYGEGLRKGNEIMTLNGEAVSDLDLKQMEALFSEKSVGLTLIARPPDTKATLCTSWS

[21] = biological target: T8, APBA2_2, Q99767
T8 sequence (Q99767 654-744, limits assumed, looked up): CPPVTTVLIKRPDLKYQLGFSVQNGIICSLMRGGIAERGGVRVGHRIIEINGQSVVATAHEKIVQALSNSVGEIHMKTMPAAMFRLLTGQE

[22] = biological target: T9, PDZD7_3, Q9H5P4
T9 sequence (Q9H5P4 857-944, limits assumed, looked up): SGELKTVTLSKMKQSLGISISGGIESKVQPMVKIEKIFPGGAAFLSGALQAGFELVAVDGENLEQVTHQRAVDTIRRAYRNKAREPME

[23] = biological target: T10, LIN7A, O14910
T10 sequence (O14910 103-200, limits assumed, looked up): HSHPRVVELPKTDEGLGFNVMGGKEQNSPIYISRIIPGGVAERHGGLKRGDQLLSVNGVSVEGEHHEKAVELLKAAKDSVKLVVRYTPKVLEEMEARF

[24] = biological target: IL16_1, Q14005
IL16_1, Q14005, sequence (Q14005 210-306): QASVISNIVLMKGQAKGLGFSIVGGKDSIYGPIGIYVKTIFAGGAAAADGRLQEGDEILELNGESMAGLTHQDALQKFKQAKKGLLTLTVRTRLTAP

[25] = biological target: Inadl_5, Q8NI35
Inadl_5, Q8NI35, sequence (Q8NI35 673-780): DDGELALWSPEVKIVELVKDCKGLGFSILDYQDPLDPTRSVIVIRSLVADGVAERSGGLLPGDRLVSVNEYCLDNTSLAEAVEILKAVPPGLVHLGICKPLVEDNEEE

[26] = biological target: LNX1_3, Q8TBB1
LNX1_3, Q8TBB1, sequence (Q8TBB1 500-596): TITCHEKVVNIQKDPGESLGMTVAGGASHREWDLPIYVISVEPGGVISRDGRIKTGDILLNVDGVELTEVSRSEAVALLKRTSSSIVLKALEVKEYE

[27] = biological target: FRMPD3, Q5JV73
FRMPD3, Q5JV73, sequence (Q5JV73 12-100): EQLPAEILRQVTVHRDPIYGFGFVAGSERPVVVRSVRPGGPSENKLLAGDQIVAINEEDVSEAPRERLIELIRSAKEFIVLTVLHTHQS

[28] = plain residues with an end cap or a label only (N-terminal biotin on a linker: ado-ado)
[29] = plain residues with an end cap or a label only (N-terminal biotin on a linker: ahx)

MAGI2_4, Q86UL8, sequence (Q86UL8 772-865): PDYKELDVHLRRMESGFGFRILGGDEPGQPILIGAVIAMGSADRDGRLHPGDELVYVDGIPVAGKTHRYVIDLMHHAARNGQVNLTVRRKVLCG
GRID2IP_1, A4D2P6, sequence (A4D2P6 1-87): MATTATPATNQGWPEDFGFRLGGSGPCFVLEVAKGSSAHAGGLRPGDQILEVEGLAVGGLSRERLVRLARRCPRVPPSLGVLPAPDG

Binder: QNTDDVQTSF [ACE2, Q9BYF1]
pKd [1, 29]: below the threshold
pKd [2, 29]: below the threshold
pKd [3, 29]: below the threshold
pKd [4, 29]: 3.67
pKd [5, 29]: below the threshold
pKd [6, 29]: below the threshold
pKd [7, 29]: below the threshold
pKd [8, 29]: below the threshold
pKd [9, 29]: below the threshold
pKd [10, 29]: below the threshold
pKd [11, 29]: below the threshold
pKd [12, 29]: below the threshold
pKd [13, 29]: below the threshold
pKd [14, 29]: below the threshold
pKd [15, 29]: below the threshold
pKd [16, 29]: below the threshold
pKd [17, 29]: below the threshold
pKd [18, 29]: 4.6
pKd [19, 29]: below the threshold
pKd [20, 29]: below the threshold
pKd [21, 29]: below the threshold
pKd [22, 29]: 3.51
pKd [23, 29]: below the threshold
pKd [24, 29]: below the threshold
pKd [25, 29]: below the threshold
pKd [26, 29]: below the threshold
pKd [27, 29]: 3.78

Binder: GEDRSPPTAL [MKNK1, Q9BUB5]
pKd [1, 28]: below the threshold
pKd [2, 28]: below the threshold
pKd [3, 28]: below the threshold
pKd [4, 28]: 4.01
pKd [5, 28]: below the threshold
pKd [6, 28]: below the threshold
pKd [7, 28]: below the threshold
pKd [8, 28]: below the threshold
pKd [9, 28]: below the threshold
pKd [10, 28]: 3.57
pKd [11, 28]: below the threshold
pKd [12, 28]: below the threshold
pKd [13, 28]: below the threshold
pKd [14, 28]: below the threshold
pKd [15, 28]: below the threshold
pKd [16, 28]: below the threshold
pKd [17, 28]: below the threshold
pKd [18, 28]: 4.1
pKd [19, 28]: below the threshold
pKd [20, 28]: below the threshold
pKd [21, 28]: below the threshold
pKd [22, 28]: 3.8
pKd [23, 28]: below the threshold
pKd [24, 28]: below the threshold
pKd [25, 28]: below the threshold
pKd [26, 28]: below the threshold
pKd [27, 28]: below the threshold

Binder: KKMLQRRTLL [OR8G1, Q15617]
pKd [1, 28]: below the threshold
pKd [2, 28]: below the threshold
pKd [3, 28]: below the threshold
pKd [4, 28]: 3.53
pKd [5, 28]: below the threshold
pKd [6, 28]: 5.09
pKd [7, 28]: below the threshold
pKd [8, 28]: below the threshold
pKd [9, 28]: below the threshold
pKd [10, 28]: below the threshold
pKd [11, 28]: below the threshold
pKd [12, 28]: below the threshold
pKd [13, 28]: 3.81
pKd [14, 28]: below the threshold
pKd [15, 28]: below the threshold
pKd [16, 28]: below the threshold
pKd [17, 28]: 3.71
pKd [18, 28]: 4.41
pKd [19, 28]: below the threshold
pKd [20, 28]: below the threshold
pKd [21, 28]: below the threshold
pKd [22, 28]: 4.61
pKd [23, 28]: below the threshold
pKd [24, 28]: below the threshold
pKd [25, 28]: below the threshold
pKd [26, 28]: below the threshold
pKd [27, 28]: below the threshold

The next lines start with the values.

pKd [1, 28]: below the threshold
pKd [2, 28]: below the threshold
pKd [3, 28]: below the threshold
pKd [4, 28]: below the threshold
pKd [5, 28]: below the threshold
pKd [6, 28]: below the threshold
pKd [7, 28]: 3.62
pKd [8, 28]: below the threshold
pKd [9, 28]: below the threshold
pKd [10, 28]: 3.5
pKd [11, 28]: below the threshold
pKd [12, 28]: below the threshold
pKd [13, 28]: 4.11
pKd [14, 28]: below the threshold
pKd [15, 28]: 3.62
pKd [16, 28]: below the threshold
pKd [17, 28]: 4.1
pKd [18, 28]: 4.14
pKd [19, 28]: below the threshold
pKd [20, 28]: 3.83
pKd [21, 28]: below the threshold
pKd [22, 28]: 4.69
pKd [23, 28]: below the threshold
pKd [24, 28]: below the threshold
pKd [25, 28]: below the threshold
pKd [26, 28]: below the threshold
pKd [27, 28]: below the threshold
Binder: SVTSERETNI [SLC16A7, O60669]

pKd [1, 28]: below the threshold
pKd [2, 28]: 3.67
pKd [3, 28]: below the threshold
pKd [4, 28]: below the threshold
pKd [5, 28]: below the threshold
pKd [6, 28]: below the threshold
pKd [7, 28]: 3.53
pKd [8, 28]: below the threshold
pKd [9, 28]: below the threshold
pKd [10, 28]: below the threshold
pKd [11, 28]: below the threshold
pKd [12, 28]: below the threshold
pKd [13, 28]: below the threshold
pKd [14, 28]: 4.32
pKd [15, 28]: 3.63
pKd [16, 28]: below the threshold
pKd [17, 28]: below the threshold
pKd [18, 28]: 4.08
pKd [19, 28]: below the threshold
pKd [20, 28]: 3.87
pKd [21, 28]: below the threshold
pKd [22, 28]: below the threshold
pKd [23, 28]: below the threshold
pKd [24, 28]: below the threshold
pKd [25, 28]: below the threshold
pKd [26, 28]: below the threshold
pKd [27, 28]: below the threshold
Binder: LPAVCYDIDI [PTTG2, Q9NZH5]
